Experimental data published in patent CN114516919A (SUZHOU BAIDAI MEDICAL SCIENCE AND TECH LIMITED COMPANY, dated 2022).

Target: T1, 肾组织切片中的PLA2R1蛋白 (human, UniProt Q13018 21-1463)
T1 construct: whole, on cells
Assay: immunohistochemistry on FFPE kidney tissue sections, DAB

T1 sequence (Q13018 21-1463): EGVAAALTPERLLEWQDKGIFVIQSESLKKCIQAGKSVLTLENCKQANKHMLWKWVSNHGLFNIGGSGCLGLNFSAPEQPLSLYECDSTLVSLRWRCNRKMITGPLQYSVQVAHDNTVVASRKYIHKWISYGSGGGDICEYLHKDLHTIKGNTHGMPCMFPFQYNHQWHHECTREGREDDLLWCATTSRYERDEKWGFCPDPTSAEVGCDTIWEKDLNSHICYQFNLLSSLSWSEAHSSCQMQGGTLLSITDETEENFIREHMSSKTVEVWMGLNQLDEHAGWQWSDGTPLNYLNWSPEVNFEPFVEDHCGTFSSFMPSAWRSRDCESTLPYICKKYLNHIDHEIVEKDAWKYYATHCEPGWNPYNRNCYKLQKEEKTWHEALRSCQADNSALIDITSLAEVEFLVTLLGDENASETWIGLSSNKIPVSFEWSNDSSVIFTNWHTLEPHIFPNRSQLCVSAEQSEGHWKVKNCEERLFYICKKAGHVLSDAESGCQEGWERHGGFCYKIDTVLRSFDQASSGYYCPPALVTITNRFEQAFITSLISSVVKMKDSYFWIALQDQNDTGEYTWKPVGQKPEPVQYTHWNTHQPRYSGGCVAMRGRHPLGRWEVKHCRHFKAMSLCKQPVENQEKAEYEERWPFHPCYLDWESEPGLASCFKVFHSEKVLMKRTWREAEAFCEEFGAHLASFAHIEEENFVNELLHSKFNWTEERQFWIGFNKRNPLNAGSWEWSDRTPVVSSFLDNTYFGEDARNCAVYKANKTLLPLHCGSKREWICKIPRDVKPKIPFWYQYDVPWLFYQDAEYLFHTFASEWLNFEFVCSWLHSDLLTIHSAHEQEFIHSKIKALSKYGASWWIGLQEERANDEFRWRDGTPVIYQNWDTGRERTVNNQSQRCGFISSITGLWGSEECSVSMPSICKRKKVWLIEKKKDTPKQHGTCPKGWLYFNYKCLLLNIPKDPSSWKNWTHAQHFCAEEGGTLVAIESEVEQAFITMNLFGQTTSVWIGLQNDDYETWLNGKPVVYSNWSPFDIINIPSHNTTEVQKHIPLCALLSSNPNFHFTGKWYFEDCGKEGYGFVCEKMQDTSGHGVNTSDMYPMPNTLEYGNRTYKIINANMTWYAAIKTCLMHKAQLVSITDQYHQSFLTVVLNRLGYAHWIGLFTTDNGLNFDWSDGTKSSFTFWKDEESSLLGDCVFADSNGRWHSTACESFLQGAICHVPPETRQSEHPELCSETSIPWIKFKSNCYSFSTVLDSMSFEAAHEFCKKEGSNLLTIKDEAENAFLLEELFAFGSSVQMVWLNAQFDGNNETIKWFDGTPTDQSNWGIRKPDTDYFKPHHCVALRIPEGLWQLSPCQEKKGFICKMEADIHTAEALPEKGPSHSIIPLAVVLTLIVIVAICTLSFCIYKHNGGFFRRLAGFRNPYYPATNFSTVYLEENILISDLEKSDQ

binding result: binds
B1: 54D11抗PLA2R重组兔单克隆抗体 (antibody, V domains shown)
VH: QSVEESGGRLVTPGTPLTLTCTVSGIDLSSHGMGWVRQAPGKGLEWIGYINTGGSAYYASWAKGRFTISRTSTTVDLKMTSLTTEDTATYFCARGDPDYTSGFPIWGPGTLVTVSS
VL: AFEMTQTPASVEVAVGGTVTIKCQASESISSWLAWYQQKPGQPPKLLIYRASTLASGVPSRFSGSGSGTQFTLTISGVECADAATYYCQQGYSSHNIDNIFGGGTEVVVR
notes: also called 54D11抗PLA2R单克隆抗体; 54D11克隆的PLA2R重组兔单克隆抗体
